For this experiment, the target named is T1, maltose binding protein (UniProt P0AEX9 27-396 = MBP).
T1 construct: also called MBP; carrier protein
In words: ELISA on coated MBP. For orientation: ELISA stands for enzyme-linked immunosorbent assay.

One molecule from US20220281960A1 (RAMOT AT TEL AVIV UNIVERSITY, published 2022) can be followed below.

B1: P4-36 (antibody, V domains shown)
VH: EVQLVESGGGLVQPGRSLRLSCTDSGFTFSEYALSWVRQAPGKGLEWVGFIRSKAYGGTTEYAASVKGRFTISRDDSKSVAYLQMNSLKTEDTAVYFCTGPRPYYDSSGYYPYYFDYWGQGTLVTVSS
VL: QSALTQPRSVSGSPGQSVTISCTGSRSDVGGYDYVSWYQQHPGRVPKLMIYDVTKRPSGVPDRFSGSRSGNTASLTISGLQADDEADYYCSSFAGSSTYVVFGGGTTLTVL
notes: also called mAb P4-36; clone 3 antibody P4-36
Regarding B1, the binding result is given as “no binding”.
